Tests used:
Assay in all cases: purified protein
purified protein [1] = substrate: CN(C)c1ccc(N=Nc2ccccc2C(=O)O)cc1; format: biochemical, Anaerotignum lactatifermentans; conditions: 400 μM NADH, 50 mM MOPS pH 7.2, 22 °C
purified protein [2] = substrate: Nc1ccc(N=Nc2ccccc2)c(N)n1; format: biochemical, Anaerotignum lactatifermentans; conditions: 400 μM NADH, 50 mM MOPS pH 7.2, 22 °C
purified protein [3] = substrate: CCN(CC)c1ccc(N=Nc2ccccc2C(=O)O)cc1; format: biochemical, Anaerotignum lactatifermentans; conditions: 400 μM NADH, 50 mM MOPS pH 7.2, 22 °C
purified protein [4] = substrate: O=C(O)c1cc(/N=N/c2ccc(S(=O)(=O)Nc3ccccn3)cc2)ccc1O; conditions: 40 μM NADH, 50 mM MOPS pH 7.2, 22 °C

B1: AlAzoR (Anaerotignum lactatifermentans DSM 14214) (protein)
chain: MKKVLFVNCCIRREGSRTQKLADHFLEGLRKKEGYEIEELCLMDESLSYFTDGFFEQRERLLADKQFDHPRFRYAHQFAEADKIVIAAPFWDLSFPALLKVYIENLCVEGITFGCNETGCFGTCKADQLIYLTTRGGFYNDNPMEMGSRYIWAMCDFFGIPRYDCVAGDGLDTGVRPVEEILEDAKAEIDRLLAEF
Q: With B1 as the protein, how does the Km (purified protein [1]) read?
A: 17 ± 3 µM

Q: And the kcat (purified protein [1])?
A: 0.49 ± 0.03 s⁻¹

Q: And the kcat/Km (purified protein [1])?
A: 28000 ± 4000 M⁻¹ s⁻¹

Q: What about the Km (purified protein [2]) of the same protein?
A: 23 ± 3 µM

Q: And the kcat (purified protein [2])?
A: 0.138 ± 0.008 s⁻¹

Q: What about the kcat/Km (purified protein [2]) of the same protein?
A: 6000 ± 700 M⁻¹ s⁻¹

Q: And the Km (purified protein [3])?
A: 30. ± 2 μM

Q: And the kcat (purified protein [3])?
A: 0.78 ± 0.02 s⁻¹

Q: And the kcat/Km (purified protein [3])?
A: 26000 ± 2000 M⁻¹ s⁻¹

Q: And the Km (purified protein [4])?
A: 8 ± 1 µM

Q: What about the kcat (purified protein [4]) of the same protein?
A: 0.05 s⁻¹

Q: What about the kcat/Km (purified protein [4]) of the same protein?
A: 6100 M⁻¹ s⁻¹
